Tests used:
Assay in all cases: FcγR binding, SPR (method per paragraph 74)
[1] = biological target: cyCD64 (cynomolgus monkey)
hCD64 (human) = hCD64 (human) (UniProt P12314)
[2] = biological target: cyCD32a (cynomolgus monkey)
hCD16a-V158 (human) = hCD16a-V158 (human) (UniProt P08637)
hCD32a-H131 (human) = hCD32a-H131 (human) (UniProt P12318)
[3] = biological target: cyCD32b (cynomolgus monkey)
hCD16a-F158 (human) = hCD16a-F158 (human) (UniProt P08637)
hCD32b (human) = hCD32b (human) (UniProt P31994)
[4] = biological target: cyCD16 (cynomolgus monkey) (UniProt Q8SPW2)
hCD32a-R131 (human) = hCD32a-R131 (human) (UniProt P12318)
hCD32a-R131 (human), sequence (P12318 36-218 H167R limits assumed): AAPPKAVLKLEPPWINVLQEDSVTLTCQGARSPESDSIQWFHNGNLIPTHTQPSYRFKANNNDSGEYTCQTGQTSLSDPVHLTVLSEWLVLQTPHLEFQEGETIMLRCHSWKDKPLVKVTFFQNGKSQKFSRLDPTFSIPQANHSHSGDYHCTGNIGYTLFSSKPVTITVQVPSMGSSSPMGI

BMS-986325 (antibody), sequence (heavy): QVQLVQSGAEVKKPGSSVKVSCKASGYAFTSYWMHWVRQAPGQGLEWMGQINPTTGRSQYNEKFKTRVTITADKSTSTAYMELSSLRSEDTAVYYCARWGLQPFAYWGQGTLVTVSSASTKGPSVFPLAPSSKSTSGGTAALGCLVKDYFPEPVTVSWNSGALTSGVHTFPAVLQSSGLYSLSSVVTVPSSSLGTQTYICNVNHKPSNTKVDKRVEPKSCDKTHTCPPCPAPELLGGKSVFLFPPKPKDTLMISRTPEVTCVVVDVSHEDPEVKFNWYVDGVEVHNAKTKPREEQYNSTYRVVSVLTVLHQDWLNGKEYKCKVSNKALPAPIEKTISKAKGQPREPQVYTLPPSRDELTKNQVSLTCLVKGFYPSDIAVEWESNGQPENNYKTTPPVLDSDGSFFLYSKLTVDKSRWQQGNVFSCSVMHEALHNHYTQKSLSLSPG
BMS-986325 (antibody), sequence (light): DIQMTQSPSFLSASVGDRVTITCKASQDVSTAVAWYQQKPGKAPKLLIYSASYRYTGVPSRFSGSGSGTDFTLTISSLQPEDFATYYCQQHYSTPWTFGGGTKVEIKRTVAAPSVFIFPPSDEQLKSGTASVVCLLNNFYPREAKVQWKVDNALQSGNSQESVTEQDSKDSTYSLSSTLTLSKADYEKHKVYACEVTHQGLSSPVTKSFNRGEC
hCD16a-V158 (human), sequence (P08637 17-208 F176V limits assumed): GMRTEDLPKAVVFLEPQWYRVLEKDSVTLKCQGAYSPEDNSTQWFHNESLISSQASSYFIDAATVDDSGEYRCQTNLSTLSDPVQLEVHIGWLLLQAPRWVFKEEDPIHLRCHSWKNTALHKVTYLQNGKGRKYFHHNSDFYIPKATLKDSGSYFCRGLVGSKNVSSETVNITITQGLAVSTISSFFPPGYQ
cyCD16 (cynomolgus monkey), sequence (Q8SPW2 17-208 limits assumed): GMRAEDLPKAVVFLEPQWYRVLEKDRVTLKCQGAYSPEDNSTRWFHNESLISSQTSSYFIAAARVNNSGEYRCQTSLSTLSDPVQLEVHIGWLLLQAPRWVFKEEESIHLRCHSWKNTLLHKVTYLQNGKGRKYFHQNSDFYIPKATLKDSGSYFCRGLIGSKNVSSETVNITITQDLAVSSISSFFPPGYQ
hCD32a-H131 (human), sequence (P12318 36-218 limits assumed): as the sequence (P12318 36-218 H167R limits assumed) above, with R132H counted along it
hCD32b (human), sequence (P31994 43-217 limits assumed): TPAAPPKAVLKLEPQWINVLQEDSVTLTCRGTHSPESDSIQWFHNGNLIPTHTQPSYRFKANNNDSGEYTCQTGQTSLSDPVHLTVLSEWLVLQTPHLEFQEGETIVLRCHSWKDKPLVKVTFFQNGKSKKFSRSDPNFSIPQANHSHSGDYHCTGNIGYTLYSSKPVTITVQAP
hCD16a-F158 (human), sequence (P08637 17-208 limits assumed): as the sequence (P08637 17-208 F176V limits assumed) above, with V160F counted along it
hCD64 (human), sequence (P12314 16-288 limits assumed): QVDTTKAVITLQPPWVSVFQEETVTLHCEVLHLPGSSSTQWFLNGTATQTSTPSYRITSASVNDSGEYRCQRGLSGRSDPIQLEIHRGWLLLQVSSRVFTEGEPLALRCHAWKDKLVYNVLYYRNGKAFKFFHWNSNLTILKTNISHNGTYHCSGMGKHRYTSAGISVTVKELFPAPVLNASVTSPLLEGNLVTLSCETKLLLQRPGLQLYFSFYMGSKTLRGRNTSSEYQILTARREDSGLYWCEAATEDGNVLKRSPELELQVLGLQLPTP

Substance	Kd [1]	fold weaker binding than wild-type human IgG1 control [1]	Kd (hCD64 (human))	Kd [2]	Kd (hCD16a-V158 (human))	Kd (hCD32a-H131 (human))	Kd [3]	Kd (hCD16a-F158 (human))	Kd (hCD32b (human))	Kd [4]	Kd (hCD32a-R131 (human))
BMS-986325 (antibody)	13 nM	100 fold									
wild-type human IgG1 control (antibody)	< 0.1 nM		< 0.1 nM	1520 nM	119 nM	446 nM	877 nM	4.43 µM	3.09 µM	164 nM	665 nM
